In US20200179236A1, “METHOD AND PRODUCT FOR CARIES TREATMENT” (Credentis AG, priority 2016, published 2020):
Where no end group is shown, it is not given here.

Key:
[1] = pH at which the peptide starts to undergo self-assembly; assay type: physicochemical
Source text: Particular self-assembling peptides for use according to the invention are selected such that they are in self-assembled form when the pH of their environment is below a certain pH, e.g. below pH 7.5, e.g., at physiological ionic strength. The pH at which preferred self-assembling peptides of the invention undergo self-assembly is below 7.5, preferably below 7.2, more preferably below 7.0. For example, the pH at which the self-assembling peptide P11-4 (SEQ ID NO:1) and terminally modified P11-4 (SEQ ID NO:2) start to undergo self-assembly is about 7.5. This means that the self-assembling peptides start to self-assemble to a significant extent when the pH drops below 7.5.
As used herein, the pH at which the self-assembling peptide starts to undergo self-assembly refers to the pH below which a significant extent of self-assembly of the peptides in solution is observed, which means that at least about 25%, about 30%, about 35%, about 40%, about 45%, about 50%, about 55%, about 60%, about 65%, about 70%, about 75%, about 80%, about 85%, about 90%, about 95%, about 99% or even about 100% of the peptides found in the dental care product are assembled. In a preferred embodiment, at least about 25% of the peptides found in the dental care product are assembled below the pH at which the peptide starts to undergo self-assembly. […]

[2] = Self-assembling kinetic of P11-4 by measurements of elastic modulus G′; assay type: physicochemical; conditions: 15 mg/ml, neutral pH, 37° C., 0.1% strain, 1 rad/second; independent of ionic strength
Experimental: P11-4 was prepared at 15 mg/ml with different buffer compositions (see below) measured at 0.1% strain, 37° C. and a frequency of 1 rad/second. Self-assembly of peptide monomers to polymers takes more than 5 min independent of the used ionic strength at neutral pH.
Squares (top line of symbols) —NaCl: Tris (0.055 M)+NaCl, final ionic strength 142 mM;
Artifical saliva (second line of symbols from top): Tris, Ca(NO3)2, KH2PO4 (ratio 0.77:0.14: 0.08), ionic strength 142 mM;
Dulbecco's Modified Eagle Medium (DMEM): NaCl, NaHCO3,KCl,CaCl2, MgSO4 (ratio 0.66:0.4:0.05: 0.02:0.007), ionic strength 165 mM; MgSO4: 0.055 M Tris+0.192 M MgSO4 0.14 M Ionic strength

Substance	pH at which the peptide starts to undergo self-assembly [1]	time of self-assembly of peptide monomers to polymers [2]
CH3CO-QQRFEWEFEQQ-NH2 (Ac-QQRFEWEFEQQ-NH2) [terminally modified P11-4]	about 7.5	
QQRFEWEFEQQ	about 7.5	more than 5 min
